Measurements published in US9603922B2, “Modulation of NKT cell activity with antigen-loaded CD1d molecules” (VACCINEX, INC., priority 2007, dated 2017).

Key:
[1] = tested on: liver iNKT cells; test: InvTCR downmodulation: disappearance of liver iNKT cells after single i.p. injection; type: in vivo, mouse; conditions: 20 hours after single i.p. injection; αGalCer 5 μg, sCD1d 20 μg, fusion 40 μg
Protocol: Frequency of iNKT cells was measured by flow cytometry using CD1d-Tetramer-EXTRAVIDIN®-PE and anti CD3 FITC.
Generation of CD1d tetramer. For this purpose, the soluble β2m-CD1d molecule was modified at the C-terminus by the addition of a cysteine after the stretch of histidine residues. After a mild reduction with 0.5 mM β-mercaptoethanol for 30 min at 30C and purification on a PD10 desalting column, the pure recombinant protein was biotinylated on the cystein residue by the chemical coupling of a biotin-maleimide linker (EZ-linked BM, Pierce) in 2M excess overnight at RT. The excess of linker was removed by gel filtration on a SUPERDEX™S200 column (Pharmacia Biotech). The biotinylated CD1d was loaded with αGalCer as described above and was tetramerized on EXTRAVIDIN®-PE (Sigma) and resulting complex was used at 5 μg/ml for NKT cell staining.
Isolation of liver, lung and spleen lymphocytes. Mouse livers and lungs were homogenized with 100 μm strainer and lymphocytes were isolated using a PERCOLL™ density gradient (Amersham Biosciences). After two washings, cells were either re-challenged or directly analyzed by fluorescence cytometry. Spleens were homogenized with a 70 μm strainer, debris were eliminated by spontaneous sedimentation and splenocytes were recovered by centrifugation. […]

[2] = tested on: liver and spleen iNKT cells; test: Intracellular cytokine staining of liver and spleen NKT cells after repeated i.v. injections; parameters: species or system mouse; conditions: after 5 to 6 i.v. injections every three days; ex vivo and in vitro rechallenge
Protocol: FIG. 2: a Sustained IFNγ production by liver and spleen iNKT cells after several injections of CD1d/anti-HER2 fusion. Liver and spleen lymphocytes were isolated 20 minutes after the sixth injection of either PBS (control, white bar), αGalCer 0.4 μg (grey bar), or αGalCer/CD1d-anti-HER2 fusion protein 40 μg (black bar) and cultured for 1 hour in presence of GOLGI PLUG™ reagent. NKT cells were then stained with anti NK1.1-PE and anti CD3-FITC antibodies, fixed and stained for intracellular IFNγ with anti IFNγ-APC. […] Liver lymphocytes were isolated after 5 injections i.v. of either PBS (Control), αGalCer, αGalCer/CD1d-anti-HER2 fusion protein (Fusion) or αGalCer/sCD1d (sCD1d) and stimulated in vitro for 6 hours in presence of GOLGI PLUG™ as indicated. […]
Isolation of liver, lung and spleen lymphocytes. […] After two washings, cells were either re-challenged or directly analyzed by fluorescence cytometry. […]
Sustained production of IFNγ after repeated i.v. injections: cytokine production was tested by IntraCellular Cytokine Staining (ICCS). […] After fixation and permeabilization with CYTOFIX/CYTOPERM™ (BD), intracellular IFNγ was detected with an APC-labeled anti-IFNγ monoclonal antibody. Cells were analyzed by flow cytometry on a FACS Calibur ([…]™ Software; BD). […]

[3] = tested on: liver NK cells; test: Transactivation of NK cells: liver NK1.1+ CD3- cells after single injection; type: in vivo, mouse; conditions: 20 hours after single i.p. injection
Excerpt: (§1) Cells were stained with anti NK1.1-PE and anti CD3-FITC and analysed by flow cytometry. NK cells are reported as NK1.1 positive/CD3 negative population. b c Induction of DC maturation and T cell proliferation by αGalCer/sCD1d activated NKT cells in vivo. Splenocytes were isolated after five treatments i.v. with either PBS (control), αGalCer, or αGalCer/sCD1d and cultured for 4 days with GM-CSF and then 3 more days with either PBS (control, white bars), αGalCer (grey bars), or αGalCer/sCD1d (sCD1d, black bars). Cells were then stained with anti CD11c-FITC and biotinylated anti CD40 and Streptavidin-PE to detect double positive mature DCs (c), or with anti NK1.1-PE and anti CD3-FITC to detect CD3 single positive T cells (d) by flow cytometry.
(§2) In absence of a specific antigen: Several reports have described the capacity of iNKT cells to transactivate NK, DC and T cells upon activation with free αGalCer or αGalCer-pulsed dendritic cells (Nieda, M., et al. Blood 103:383-389 (2004); Hermans, I. F., et al. J Immunol 171:5140-5147 (2003); Smyth, M. J., et al. J Exp Med 201:1973-1985 (2005)). […] Markers for DC maturation were also analyzed after 5 days in vitro culture of splenocytes isolated at the end of a systemic treatment, as described in Example 1. […]

[4] = tested on: splenocytes, CD11c+ CD40+ DC; test: DC maturation (CD11c+ CD40+) in splenocyte cultures of treated mice; type: cell-based, mouse; conditions: in vitro stimulation of splenocytes isolated after systemic treatment
Excerpt: as §1, §2

[5] = tested on: splenocytes, CD3+ T cells; test: Conventional T cells (CD3+) in splenocyte cultures of treated mice; type: cell-based, mouse; conditions: for Conventional T cell population of CD3+ cells, in words: in vitro stimulation of splenocyte cultures; for Percentage of CD3+ cells of total spleen cells: in vitro stimulation, 7% without stimulation
Excerpt: as §1
In absence of a specific antigen: Several reports have described the capacity of iNKT cells to transactivate NK, DC and T cells upon activation with free αGalCer or αGalCer-pulsed dendritic cells (Nieda, M., et al. Blood 103:383-389 (2004); Hermans, I. F., et al. J Immunol 171:5140-5147 (2003); Smyth, M. J., et al. J Exp Med 201:1973-1985 (2005)). […] Regarding NK cells, their frequency indeed increased after a single injection of free αGalCer or of αGalCer/sCD1d with or without anti HER2, as shown by the increase of the NK1.1^+ CD3^− cell population (FIG. 7a). Markers for DC maturation were also analyzed after 5 days in vitro culture of splenocytes isolated at the end of a systemic treatment, as described in Example 1. […] From 7% of total spleen cells without stimulation, percentage of CD3^+ cells increased to 17, 27 and 30%, respectively in naïve, αGalCer and αGalCer/sCD1d treated mice.

Molecule: CCCCCCCCCCCCCCCCCCCCCCCCCC(=O)N[C@@H](CO[C@H]1O[C@H](CO)[C@H](O)[C@H](O)[C@H]1O)[C@H](O)[C@H](O)CCCCCCCCCCCCCC [αGalCer, α-galactosylceramide, reference compound]
- inv TCR downmodulation / disappearance of liver iNKT cells [1]: inv TCR downmodulation occurred
- IFNγ production by iNKT cells [2]: only active in naïve (PBS control) mice and has no more effect in αGalCer-treated mice
- NK cell frequency (NK1.1+ CD3- population) [3]: increased
- Percentage of CD11c+ CD40+ double positive cells [4]: had no effect in any of the mice
- Conventional T cell population of CD3+ cells, in words [5]: no significant effect

B1: αGalCer/sCD1d: soluble monomeric mouse β2m-CD1d, His-tagged, loaded with αGalCer (protein)
chain: IQKTPQIQVYSRHPPENGKPNILNCYVTQFHPPHIEIQMLKNGKKIPKVEMSDMSFSKDWSFYILAHTEFTPTETDTYACRVKHASMAEPKTVYWDRDMGGGGSGGSGSGGGSEAQQKNYTFRCLQMSSFANRSWSRTDSVVWLGDLQTHRWSNDSATISFTKPWSQGKLSNQQWEKLQHMFQVYRVSFTRDIQELVKMMSPKEDYPIEIQLSAGCEMYPGNASESFLHVAFQGKYVVRFWGTSWQTVPGAPSWLDLPIKVLNADQGTSATVQMLLNDTCPLFVRGLLEAGKSDLEKQEKPVAWLSSVPSSADGHRQLVCHVSGFYPKPVWVMWMRGDQEQQGTHRGDFLPNADETWYLQATLDVEAGEEAGLACRVKHSSLGGQDIILYWSSGSGGHHHHHH
- inv TCR downmodulation / disappearance of liver iNKT cells [1]: transient disappearance of liver iNKT cells
- IFNγ production by iNKT cells [2]: stimulate iNKT to produce IFNγ following repeated in vivo stimulation with the same material
- NK cell frequency (NK1.1+ CD3- population) [3]: increased
- Percentage of CD11c+ CD40+ double positive cells [4]: increased
- Conventional T cell population of CD3+ cells, in words [5]: significantly increased
- Percentage of CD3+ cells of total spleen cells ([5]; splenocytes of naïve mice): 17%
- Percentage of CD3+ cells of total spleen cells ([5]; splenocytes of αGalCer treated mice): 27%
- Percentage of CD3+ cells of total spleen cells ([5]; splenocytes of αGalCer/sCD1d treated mice): 30%
